For five compounds, remaining activity results are on record in article PMC8307404, “Crystal Structure-Guided Design of Bisubstrate Inhibitors and Photoluminescent Probes for Protein Kinases of the PIM Family” (Molecules, 2021).

Square brackets hold non-standard residues; d marks the D form. Peptide text beside a SMILES is read from it. * marks the point of attachment. X3 = O=C(CCCCCNCc1nc2c(sc3cc(Br)cnc32)c(=O)[nH]1)*

Common to all, as to assay: Kinase profiling (radiometric filter-binding)
What all share (assay type): biochemical

The target of one data set is SRPK1 (Homo sapiens, UniProt Q96SB4). Conditions: SRPK1, 1 µM inhibitor; read-out: Residual activity, %. The protocol:
(§1) Kinase selectivity profiling was performed using the commercial service provided by the MRC PPU International Centre for Kinase Profiling (Dundee, UK) using a radiometric filter-binding assay. Kinases used for analysis were of human origin. The ATP concentration applied for inhibition measurements was at or below the ATP KM value of the particular PK. ARC-3125 and ARC-3126 were screened against 139 PKs, whereas compounds 1, 2, and 8 were screened against 140 PKs. The final total concentration of inhibitors in the selectivity panel was 1 µM. Residual activities were expressed as the percentage of retained activity compared to the control without inhibitor.

The next data set deals with CDK2-Cyclin A (Homo sapiens, UniProt P24941). Conditions: 1 µM inhibitor, read-out: Residual activity, %. The protocol: as §1
The target of another data set is T1, TGFBR1 (Homo sapiens, UniProt P36897).
T1 sequence (P36897 34-503): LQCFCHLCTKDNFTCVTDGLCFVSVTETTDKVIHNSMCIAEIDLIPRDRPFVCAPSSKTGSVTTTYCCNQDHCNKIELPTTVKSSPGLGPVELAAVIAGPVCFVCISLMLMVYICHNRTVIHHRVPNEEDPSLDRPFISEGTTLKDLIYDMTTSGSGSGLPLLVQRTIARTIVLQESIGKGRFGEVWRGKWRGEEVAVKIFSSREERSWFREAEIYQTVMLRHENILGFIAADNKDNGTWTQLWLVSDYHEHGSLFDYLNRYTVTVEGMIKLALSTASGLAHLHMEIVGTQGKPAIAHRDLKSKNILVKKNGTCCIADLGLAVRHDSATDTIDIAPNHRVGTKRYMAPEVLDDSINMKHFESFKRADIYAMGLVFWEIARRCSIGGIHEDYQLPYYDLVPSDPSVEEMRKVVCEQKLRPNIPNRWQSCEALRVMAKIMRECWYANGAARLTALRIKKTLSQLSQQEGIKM
Conditions: TGFBR1, 1 µM inhibitor; read-out: Residual activity, %. The protocol: as §1

For the next data set, the target named is SIK2 (Homo sapiens, UniProt Q9H0K1). Conditions: SIK2, 1 µM inhibitor; read-out: Residual activity, %. The procedure: as §1
The target in another data set is T2, ERK8 (Homo sapiens, UniProt Q8TD08).
T2 sequence (Q8TD08 1-544): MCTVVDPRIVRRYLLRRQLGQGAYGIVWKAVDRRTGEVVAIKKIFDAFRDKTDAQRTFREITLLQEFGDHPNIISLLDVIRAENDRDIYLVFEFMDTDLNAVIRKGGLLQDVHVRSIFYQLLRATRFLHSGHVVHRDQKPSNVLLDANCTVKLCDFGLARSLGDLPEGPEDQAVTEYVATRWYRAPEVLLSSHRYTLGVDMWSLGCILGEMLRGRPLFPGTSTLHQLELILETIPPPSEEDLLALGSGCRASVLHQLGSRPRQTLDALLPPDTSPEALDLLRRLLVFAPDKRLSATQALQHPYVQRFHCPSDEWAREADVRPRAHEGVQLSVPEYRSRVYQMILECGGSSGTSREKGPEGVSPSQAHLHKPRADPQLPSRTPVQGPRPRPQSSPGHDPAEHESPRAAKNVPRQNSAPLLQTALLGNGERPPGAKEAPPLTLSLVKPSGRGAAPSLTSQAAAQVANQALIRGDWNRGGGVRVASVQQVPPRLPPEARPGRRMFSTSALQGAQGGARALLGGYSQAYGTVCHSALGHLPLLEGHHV
The conditions noted are these: ERK8, 1 µM inhibitor; read-out: Residual activity, %. The protocol:
as §1

The next data set addresses NEK6 (Homo sapiens, UniProt Q9HC98). Conditions: NEK6, 1 µM inhibitor; read-out: Residual activity, %. The procedure:
as §1

For a further data set, the target named is T3, DDR2 (Homo sapiens, UniProt Q16832).
T3 sequence (Q16832 22-855): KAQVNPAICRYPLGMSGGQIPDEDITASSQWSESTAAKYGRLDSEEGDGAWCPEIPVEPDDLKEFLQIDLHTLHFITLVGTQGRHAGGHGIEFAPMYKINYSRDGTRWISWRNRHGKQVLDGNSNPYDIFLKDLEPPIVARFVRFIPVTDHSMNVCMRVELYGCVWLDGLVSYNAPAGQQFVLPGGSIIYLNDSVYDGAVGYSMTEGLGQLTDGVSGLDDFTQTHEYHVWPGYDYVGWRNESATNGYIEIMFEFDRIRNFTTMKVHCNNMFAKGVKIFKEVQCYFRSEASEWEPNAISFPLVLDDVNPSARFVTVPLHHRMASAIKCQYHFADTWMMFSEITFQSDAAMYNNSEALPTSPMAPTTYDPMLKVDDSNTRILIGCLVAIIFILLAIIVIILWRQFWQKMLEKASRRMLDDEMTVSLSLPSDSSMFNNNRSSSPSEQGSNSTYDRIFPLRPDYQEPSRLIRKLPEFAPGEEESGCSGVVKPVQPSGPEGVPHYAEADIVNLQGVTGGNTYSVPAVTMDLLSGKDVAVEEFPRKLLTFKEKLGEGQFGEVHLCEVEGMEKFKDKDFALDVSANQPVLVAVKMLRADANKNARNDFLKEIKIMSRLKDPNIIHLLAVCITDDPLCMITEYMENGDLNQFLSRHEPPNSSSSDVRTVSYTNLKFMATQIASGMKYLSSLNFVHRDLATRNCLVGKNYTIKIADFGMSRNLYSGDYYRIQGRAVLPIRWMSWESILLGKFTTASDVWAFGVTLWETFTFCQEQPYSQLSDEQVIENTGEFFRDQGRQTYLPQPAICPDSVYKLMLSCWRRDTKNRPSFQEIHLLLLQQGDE
The conditions noted are these: DDR2, 1 µM inhibitor; read-out: Residual activity, %. The procedure: as §1

Chain of SIK2 (Q9H0K1 whole entry): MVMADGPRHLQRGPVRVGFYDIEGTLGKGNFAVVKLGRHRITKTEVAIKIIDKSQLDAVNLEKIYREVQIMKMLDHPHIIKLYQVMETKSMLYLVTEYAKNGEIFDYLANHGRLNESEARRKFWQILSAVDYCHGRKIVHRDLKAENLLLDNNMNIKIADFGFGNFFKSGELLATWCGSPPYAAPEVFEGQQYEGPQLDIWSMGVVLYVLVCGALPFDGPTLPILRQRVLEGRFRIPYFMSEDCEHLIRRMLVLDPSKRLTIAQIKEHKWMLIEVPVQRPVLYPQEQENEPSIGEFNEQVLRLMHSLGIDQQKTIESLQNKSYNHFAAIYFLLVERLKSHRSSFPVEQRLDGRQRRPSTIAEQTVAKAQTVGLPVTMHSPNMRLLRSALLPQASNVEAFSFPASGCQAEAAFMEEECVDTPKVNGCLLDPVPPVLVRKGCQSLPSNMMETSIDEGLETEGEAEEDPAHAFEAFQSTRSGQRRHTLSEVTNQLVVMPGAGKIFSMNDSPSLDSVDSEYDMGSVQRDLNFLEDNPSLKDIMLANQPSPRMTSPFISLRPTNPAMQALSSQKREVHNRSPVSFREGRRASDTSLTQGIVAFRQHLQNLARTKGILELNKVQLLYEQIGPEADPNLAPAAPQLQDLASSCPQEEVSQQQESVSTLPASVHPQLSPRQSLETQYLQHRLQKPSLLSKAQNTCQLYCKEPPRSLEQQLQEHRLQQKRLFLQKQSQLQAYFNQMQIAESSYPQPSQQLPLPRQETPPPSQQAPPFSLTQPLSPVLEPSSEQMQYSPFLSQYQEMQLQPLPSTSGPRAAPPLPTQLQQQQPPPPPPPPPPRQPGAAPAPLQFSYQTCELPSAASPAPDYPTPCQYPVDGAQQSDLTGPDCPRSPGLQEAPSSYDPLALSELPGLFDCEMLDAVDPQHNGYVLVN
Chain of NEK6 (Q9HC98 whole entry): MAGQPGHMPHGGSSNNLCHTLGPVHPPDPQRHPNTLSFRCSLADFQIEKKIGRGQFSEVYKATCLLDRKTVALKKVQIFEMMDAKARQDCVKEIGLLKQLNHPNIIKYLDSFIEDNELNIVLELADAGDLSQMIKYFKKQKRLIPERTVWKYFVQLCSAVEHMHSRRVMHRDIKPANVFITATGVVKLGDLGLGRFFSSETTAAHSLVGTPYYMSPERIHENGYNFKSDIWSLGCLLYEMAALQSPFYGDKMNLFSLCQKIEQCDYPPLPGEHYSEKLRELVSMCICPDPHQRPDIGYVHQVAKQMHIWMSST
Chain of SRPK1 (Q96SB4 whole entry): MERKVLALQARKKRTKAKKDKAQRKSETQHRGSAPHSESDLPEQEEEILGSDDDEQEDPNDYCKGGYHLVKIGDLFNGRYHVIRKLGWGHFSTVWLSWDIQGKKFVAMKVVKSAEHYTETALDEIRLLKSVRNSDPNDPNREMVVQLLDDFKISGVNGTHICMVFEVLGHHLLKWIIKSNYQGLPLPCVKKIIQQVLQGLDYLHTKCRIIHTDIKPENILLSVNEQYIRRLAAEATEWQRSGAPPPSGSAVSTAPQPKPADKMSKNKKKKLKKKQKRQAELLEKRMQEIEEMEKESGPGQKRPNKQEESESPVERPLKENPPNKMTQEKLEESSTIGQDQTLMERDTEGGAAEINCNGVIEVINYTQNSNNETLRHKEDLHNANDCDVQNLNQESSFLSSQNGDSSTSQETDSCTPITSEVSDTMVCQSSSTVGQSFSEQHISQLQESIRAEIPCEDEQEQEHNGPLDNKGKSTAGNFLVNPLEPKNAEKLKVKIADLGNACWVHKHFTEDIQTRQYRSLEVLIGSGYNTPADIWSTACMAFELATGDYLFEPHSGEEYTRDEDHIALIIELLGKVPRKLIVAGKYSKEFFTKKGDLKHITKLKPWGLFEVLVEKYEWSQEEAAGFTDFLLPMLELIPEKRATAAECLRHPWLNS

For `N=C(N)NCCC[C@@H](NC(=O)CCCCCNCc1nc2c(sc3cc(Br)cnc32)c(=O)[nH]1)C(=O)N[C@H](CCCNC(=N)N)C(=O)N[C@H](CCCNC(=N)N)C(=O)N[C@H](CCCNC(=N)N)C(=O)N[C@H](CCCNC(=N)N)C(=O)N[C@H](CCCNC(=N)N)C(=O)N[C@H](CCCCN)C(N)=O` [ARC-3126, BPTP-Ahx-(D-Arg)6-D-Lys-NH2] (X3-[dR][dR][dR][dR][dR][dR][dK]-NH2), the remaining activity at 1 µM with SRPK1 is 89 ± 5%; with CDK2-Cyclin A, 106 ± 5%; with TGFBR1, 109 ± 2%; with SIK2 it was 109 ± 6%; in the data set with ERK8, 49 ± 30%; in the data set with NEK6, 85 ± 17%. Also, the remaining activity at 1 µM with DDR2 came out at 93 ± 3%.
`N=C(N)NCCC[C@@H](NC(=O)CNC(=O)[C@@H](CCCNC(=N)N)NC(=O)[C@@H](CCCNC(=N)N)NC(=O)CCCCCCCNCc1nc2c(sc3ccc(Br)cc32)c(=O)[nH]1)C(=O)N[C@H](CCCCN)C(N)=O` [Compound 2, BBTP-Aoc-(D-Arg)2-Gly-D-Arg-D-Lys-NH2]: the remaining activity at 1 µM in the data set with SRPK1 turned out to be 113 ± 7%; with CDK2-Cyclin A it was 105 ± 9%; in the data set with TGFBR1, 106 ± 7%; in the data set with SIK2, 107 ± 10%; with ERK8 it was 78 ± 17%; with NEK6 it was 126 ± 5%. Moreover, the remaining activity at 1 µM with DDR2 worked out at 107 ± 7%.
As for `N=C(N)NCCC[C@@H](NC(=O)CNC(=O)[C@@H](CCCNC(=N)N)NC(=O)[C@@H](CCCNC(=N)N)NC(=O)Cn1cc(CNCc2nc3c(sc4ccc(Br)cc43)c(=O)[nH]2)nn1)C(=O)N[C@H](CCCCN)C(N)=O` [Compound 3, BBTP-Amt-(D-Arg)2-Gly-D-Arg-D-Lys-NH2], the remaining activity at 1 µM was determined as 91 ± 2% with SRPK1; 100% with CDK2-Cyclin A; 95 ± 10% in the data set with TGFBR1; 68 ± 3% with SIK2; 83 ± 2% with ERK8; 117 ± 23% with NEK6. Moreover, the remaining activity at 1 µM in the data set with DDR2 was 112 ± 6%.
Consider `N=C(N)NCCC[C@@H](NC(=O)CCCCCNC(=O)Cn1cnc2c(I)c(I)c(I)c(I)c21)C(=O)N[C@H](CCCNC(=N)N)C(=O)N[C@H](CCCNC(=N)N)C(=O)N[C@H](CCCNC(=N)N)C(=O)N[C@H](CCCNC(=N)N)C(=O)N[C@H](CCCNC(=N)N)C(=O)N[C@H](CCCCN)C(N)=O` [ARC-3125, TIBI-CH2-C(=O)-Ahx-(D-Arg)6-D-Lys-NH2], for which the remaining activity at 1 µM in the data set with SRPK1 is 54 ± 1%; in the data set with CDK2-Cyclin A it was 17 ± 1%; with TGFBR1, 108 ± 18%; with SIK2, 34 ± 4%; with ERK8, 18 ± 9%; in the data set with NEK6 it was 97%. In the data set with DDR2, the remaining activity at 1 µM was 84 ± 13%.
Regarding `N=C(N)NCCC[C@@H](NC(=O)CNC(=O)[C@@H](CCCNC(=N)N)NC(=O)[C@@H](CCCNC(=N)N)NC(=O)CCCCCCCNCc1nc2c(sc3cc(Br)cnc32)c(=O)[nH]1)C(=O)N[C@H](CCCCN)C(N)=O` [Compound 1, BPTP-Aoc-(D-Arg)2-Gly-D-Arg-D-Lys-NH2], the remaining activity at 1 µM in the data set with SRPK1 turned out to be 102 ± 1%; in the data set with CDK2-Cyclin A, 106 ± 12%; with TGFBR1, 103 ± 8%; with SIK2, 110 ± 5%; with ERK8 it was 109 ± 8%; in the data set with NEK6 it was 107 ± 11%. Further, the remaining activity at 1 µM with DDR2 was found to be 104 ± 22%.
